# Experimental data taken from patent publication US9732101B2, “Bioreversible boronates for delivery of molecules into cells” (WISCONSIN ALUMNI RESEARCH FOUNDATION, priority 2012, dated 2017).
# B1: PBA-boronated RNase A: RNase A conjugated with 3-aminophenylboronic acid, on average 5.3±2.3 PBA per protein (conjugate, UniProt P61823 27-150, looked up)
# Ribonuclease pancreatic: KETAAAKFERQHMDSSTSAASSSNYCNQMMKSRNLTKDRCKPVNTFVHESLADVQAVCSQKNVACKNGQTNCYQSYSTMSITDCRETGSSKYPNCAYKTTQANKHIIVACEGNPYVPVHFDASV
# modifications: 3-aminophenylboronic acid conjugates
# notes: RNase A conjugated with 3-aminophenylboronic acid, on average 5.3±2.3 PBA per protein
# B2: G88R RNase A: cytotoxic G88R variant of ribonuclease A (protein, UniProt P61823 27-150, looked up, variant G88R)
# Ribonuclease pancreatic: KETAAAKFERQHMDSSTSAASSSNYCNQMMKSRNLTKDRCKPVNTFVHESLADVQAVCSQKNVACKNGQTNCYQSYSTMSITDCRETRSSKYPNCAYKTTQANKHIIVACEGNPYVPVHFDASV
# B3: esterified FLAG-RNase A: FLAG-RNase A labeled with TMLB-NHS ester, 1.6±0.7 labels per protein (conjugate, UniProt P61823 27-150, looked up)
# Ribonuclease pancreatic: KETAAAKFERQHMDSSTSAASSSNYCNQMMKSRNLTKDRCKPVNTFVHESLADVQAVCSQKNVACKNGQTNCYQSYSTMSITDCRETGSSKYPNCAYKTTQANKHIIVACEGNPYVPVHFDASV
# modifications: FLAG tag; TMLB ester labels
# notes: FLAG-RNase A labeled with TMLB-NHS ester, 1.6±0.7 labels per protein
# B4: TMLB-labeled G88R RNase A: G88R RNase A labeled with TMLB-NHS ester, 2±1 labels per protein (conjugate, UniProt P61823 27-150, looked up, variant G88R)
# Ribonuclease pancreatic: KETAAAKFERQHMDSSTSAASSSNYCNQMMKSRNLTKDRCKPVNTFVHESLADVQAVCSQKNVACKNGQTNCYQSYSTMSITDCRETRSSKYPNCAYKTTQANKHIIVACEGNPYVPVHFDASV
# modifications: TMLB ester labels
# notes: G88R RNase A labeled with TMLB-NHS ester, 2±1 labels per protein
# What was measured:
# [1] = tested on: HeLa cells; assay: Cellular internalization by flow cytometry; format: cell-based; details: for increase in cellular uptake into HeLa cells: 5 μM, 4 h, relative to unmodified lysozyme; for effect of fructose on enhancement of cellular uptake into HeLa cells: fructose 250 mM
# Procedure: Cell lines were obtained from American Type Culture Collection (Manassas, Va.) and were maintained according to the recommended guidelines. Cells were grown in a cell culture incubator at 37° C. and 5% CO2 in flat-bottomed culture flasks. Cell media was supplemented with 10% (v/v) GIBCO fetal bovine serum (FBS), 100 units/mL penicillin, and 100 μg/mL streptomycin in the appropriate cellular media for HeLa cells: DMEM, high glucose (Invitrogen, Carlsbad, Calif.). Cells were counted by hemocytometry for dispensing into 12-well plates (Corning Costar, Lowell, Mass.).
# BODIPY-FL was excited with a 488 nm solid-state laser and the emission was collected with a 530/30 bandpass filter. At least 10,000 cellular events were acquired for each sample. Data were analyzed using FlowJo 8.1.3 (Treestar, Ashland, Oreg.).
# The day prior to the experiment, 1×10^5HeLa cells/well were plated in 12 well plates. The day of the experiment, the appropriate amount of fructose was dissolved into the cellular medium to obtain a final 250 mM fructose concentration, then it was sterile filtered with a 0.45 μm Whatman (Piscataway, N.J.) syringe filter. Non-fructose containing medium was likewise sterile filtered to maintain consistency between the experimental groups. Stock solutions of fluorescently labeled proteins were diluted into the cell culture to a final concentration of 5 μM. proteins were incubated with cells for four hours, then the cells were rinsed twice with PBS, removed from the cell culture plate with trypsin, placed in flow cytometry tubes containing 80 μL of FBS (to ensure cell viability), and incubated on ice until analyzed by flow cytometry. Final fluorescence values were divided by the percent fluorophore labeling of the protein to determine the corrected value of fluorescence. Experiments were run in triplicate (except for PBA-boronated lysozyme, which was in duplicate) and the data is reported as the mean±standard deviation normalized to the wild type protein uptake.
# Flow cytometry experiments were conducted as described in Example 11 with Fluorescein-conjugated NeutrAvidin and Boronated Fluorescein-conjugated NeutrAvidin (boronated by complexation to the PBA-boronated Biotin-peptide conjugate) in HeLa cells.
# [2] = tested on: Lec-2 cells; assay: Cellular internalization by flow cytometry; format: cell-based, Chinese hamster
# Procedure: (§1) Cell lines were obtained from American Type Culture Collection (Manassas, Va.) and were maintained according to the recommended procedures. Cells were grown in a cell culture incubator at 37° C. under CO2 (5% v/v) in flat-bottomed culture flasks. Cell medium was supplemented with GIBCO fetal bovine serum (FBS) (10% v/v), penicillin (100 units/mL), and streptomycin (100 μg/mL) in the appropriate cellular medium as follows: Pro-5, MEM α+ribonucleosides+deoxyribonucleosides; Lec-2, MEM α-ribonucleosides-deoxyribonucleosides; and K562, RPMI 1640. Cells were counted by hemocytometry for dispensing into 12-well plates (Corning Costar, Lowell, Mass.) or 8-well chambered coverglass slides (Nuc Lab-Tek II, Thermo Scientific).
# (§2) BODIPY-FL was excited with a 488 nm solid-state laser and the emission was collected with a 530/30 bandpass filter. To collect the most reproducible data, for every flow cytometry experiment, the sensitivity (voltage) of the photomultiplier tube was set for all data collections using mid-range Rainbow beads from Spherotech (Lake Forest, Ill.) to a predetermined fluorescence target value. At least 10,000 cellular events were acquired for each sample. Data were analyzed using FlowJo 8.1.3 (Treestar, Ashland, Oreg.).
# (§3) The day prior to an experiment, Pro-5 and Lec-2 cells were plated in 12-well plates at 1×10^5 cells/well. The day of the experiment, the appropriate amount of fructose was dissolved into the cellular medium to obtain a final fructose concentration of 250 mM, and the medium was passed through a 0.45-μm syringe filter from Whatman (Piscataway, N.J.). Non-fructose-containing medium was filtered likewise. Stock solutions of fluorescently labeled ribonucleases were diluted into the cell culture to a final concentration of 5 μM. Ribonucleases were incubated with cells for 4 h. Cells were then rinsed with PBS (2×400 μL), removed from the cell culture plate with trypsin (400 μL, 0.05% (1×) with EDTA; Invitrogen, Carlsbad, Calif.), placed in flow cytometry tubes containing 80 μL of FBS, and incubated on ice until analyzed by flow cytometry. Final fluorescence values were divided by the percent fluorophore labeling of the ribonuclease to determine the corrected value of fluorescence. Experiments were run twice in triplicate unless otherwise indicated. Data is illustrated in FIG. 4A and FIG. 4C.
# [3] = tested on: Pro-5 cells; assay: Cellular internalization by flow cytometry; format: cell-based, Chinese hamster
# Procedure: as §1, §2, §3
# [4] = tested on: K-562 cells; assay: Cell-proliferation assay, CyQUANT NF; format: cell-based, human; details: 48 h, serum-free RPMI 1640, read-out: IC50, inhibition of K-562 cell proliferation
# Procedure: The effect of unmodified G88R RNase A and TMLB-G88R RNase A on the proliferation of K-562 cells was assayed using a CyQUANT® NF Cell Proliferation Assay Kit (Invitrogen). Briefly, 5×10^4 cells/mL were added to each well of a 96-well plate in 100 μL of serum-free RPMI 1640 medium. Cells were incubated with G88R RNase A or TMLB-G88R RNase A for 48 h, with PBS and H2O2 serving as negative and positive controls, respectively. Cells were then washed and incubated in CyQUANT® reagent for 30 min and fluorescence intensity was measured with excitation at ˜485 nm and emission detection at ˜530 nm. Data are the average of two measurements for each concentration, and the entire experiment was repeated in triplicate. The results are shown as the percentage of dye incorporated relative to control cells treated with PBS. Values for IC50 were calculated by fitting the curves by nonlinear regression to the equation: y=100%/(1+10^(log(IC50)-log [ribonuclease])h), where y is the total DNA synthesis following the CyQUANT dye pulse and h is the slope of the curve (FIG. 28).
# [5] = Hydrolysis of labeled protein by cell lysate; format: in vitro ADME, human; details: K-562 cell lysate, ambient temperature, 12 h, MALDI-TOF
# Procedure: K-562 cells were grown to confluence in a T75 flask before their collection and lysis with M-PER from Thermo Fisher Scientific. The presence of esterase activity in the lysate was verified by a colorimetric assay using p-nitrophenyl acetate (data not shown). A solution of esterified FLAG-RNase A (10 μg) was added to 200 μL of K-562 cell lysate, and the reaction mixture was nutated at ambient temperature for 12 h. FLAG-RNase A was purified with anti-FLAG® M2 Magnetic Beads from Sigma-Aldrich.
# [6] = Hydrolysis of labeled protein by cell lysate; format: in vitro ADME, Chinese hamster; details: CHO K1 cell lysate, ambient temperature, 12 h, MALDI-TOF
# Procedure: CHO K1 cells were grown to confluence in a 10-cm^2 dish before their collection and lysis with M-PER (Thermo Fisher Scientific). The presence of esterase activity in the lysate was verified by a colorimetric assay using p-nitrophenyl acetate (data not shown). A solution of TMLB-GFP (10 μg) was added to 200 μL of CHO K1 cell lysate, and the reaction mixture was nutated at ambient temperature for 12 h. The GFP was subsequently purified with HisPur™ Ni-NTA Magnetic Beads (Thermo Fisher Scientific).
# [7] = 5 μM, 4 h, relative to unmodified RNase A
molecule,measurement,setting,value
"benzoboroxole-boronated lysozyme: chicken egg white lysozyme conjugated with 5-amino-2-hydroxymethylphenylboronic acid, on average 2.3±1.1 per lysozyme",increase in cellular uptake into HeLa cells,[1],about 4 fold
same,effect of fructose on enhancement of cellular uptake into HeLa cells,[1],decreased
Boronated Fluorescein-conjugated NeutrAvidin: Fluorescein-conjugated NeutrAvidin boronated by complexation to the PBA-boronated Biotin-peptide conjugate,increase in internalization in HeLa cells,[1]; relative to unmodified Fluorescein-conjugated NeutrAvidin,about 2 fold
"PBA-boronated lysozyme: chicken egg white lysozyme conjugated with 3-aminophenyboronic acid, on average 2.6±1.7 PBA",increase in cellular uptake into HeLa cells,[1],about 20 fold
same,effect of fructose on enhancement of cellular uptake into HeLa cells,[1],decreased
B1,increase in cellular uptake,[2]; [7],2.5-3 fold
same,effect of fructose on enhancement of cellular uptake,[2]; fructose 0.25 M,eliminated
same,increase in cellular uptake,[3]; [7],2.5-3 fold
same,effect of fructose on enhancement of cellular uptake,[3]; fructose 0.25 M,eliminated
B2,IC50,[4],6.4 ± 0.1 µM
B3,reversibility of labeling: removal of labels by cell lysate,[5],regeneration of unlabeled FLAG-RNase A was confirmed
B4,IC50,[4],3.5 ± 0.8 µM
same,reversibility of labeling: removal of labels by cell lysate,[6],removed all of the labels
